B1: STX11 (parent)
chain: FQRAMHDYNQAEMKQRDNCKIRIQ
B2: RTN1 (parent)
chain: VVAYLALAALSATISFRIYKSVLQ

Variants of: B1
Assay: protein stability index of a GFP-peptide fusion (GPS, HEK-293T) (PSI 1-6); higher = more stable
Conditions: c terminus: a fixed tail appended
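Further: lentivirally expressed fusions sorted by FACS into six bins by GFP to DsRed ratio, PSI derived from sequencing read proportions per bin multiplied by bin number.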

Protein stability index: each site, then its substitutions
R16: C 2.48; Q 3.29; P 2.87; L 3.07; T 2.67; N 2.7; E 3.04; I 2.34; M 2.46; K 2.81; D 3.28; G 3.37; F 2.28; S 2.41; A 3.04; H 2.73
N9: Q 2.64; C 2.15; E 2.94; G 2.33; F 1.83; Y 1.74; P 3.11; V 2; L 2.74; T 2.79; M 1.7; D 2.84; A 2.47; R 4.08; K 2.29; H 2.93; W 1.74; S 2.91; I 2.25
R3: M 1.62; A 2.94; C 1.65; H 2.97; Q 3.28; P 2.99; G 2.88; E 3.99; Y 2.25; V 2.86; F 2.07; D 3.44; K 3.01; L 2.76; I 2.38; S 2.51; N 3.12; T 2.93
F1: R 3.28; V 3.46; Q 4.13; Y 2.78; C 3.56; D 4.15; M 3.82; T 4.11; W 3.69; K 3.98; H 4.18; A 3.87; S 4.1; E 4.17; I 3.46; L 3.29; G 3.88; P 4.17; N 4.4
Y8: L 2.39; R 2.61; T 3.62; K 3.58; V 2.89; P 3.32; E 3.47; F 2.52; M 3.15; C 2.62; A 3.64; W 2.08; S 3.45; G 3.39; D 3.4; Q 3.83; N 3.83; H 3; I 3.08
E12: K 2.31; A 2.32; P 2.02; L 2.42; V 2.52; F 2.29; R 2.83; H 2.14; T 2.62; N 2.29; W 2.39; Q 2.31; M 1.6; C 2.11; I 2.44; S 2.23; D 2.5; G 2.05; Y 1.67
Q15: H 2.57; S 2.71; V 2.56; T 3.18; E 3.2; C 2.29; P 2.85; L 2.32; F 2.01; M 1.86; D 2.74; G 2.45; R 2.64; A 2.23; I 2.17; K 2.15; N 2.86; Y 3.08; W 3.09
Q10: P 2.01; G 2.45; I 2.31; K 2.73; E 2.74; M 1.92; C 1.87; Y 2.17; T 2.39; R 2.06; F 1.81; W 1.73; H 2.16; D 2.59; V 2.67; A 3.1; S 3.35; L 2.36; N 2.63
H6: K 2.74; E 4; Q 2.66; M 1.96; D 2.92; W 2.43; P 2.5; C 2.7; F 2.32; L 2.91; N 3.3; R 2.16; G 2.9; A 2.74; V 2.8; S 1.9; Y 3.26; I 2.42; T 3.06
D7: R 2.12; C 1.71; K 2.56; P 2.23; M 2.85; I 1.7; E 3.09; S 2.21; T 2.23; A 2.67; F 1.17; G 2.18; H 2.3; L 1.43; V 2.15; Q 2.24; Y 1.67; N 2.66
A4: T 2.69; N 2.78; I 2.18; F 2.86; D 3.4; L 2.46; H 2.75; S 2.8; Y 2.59; R 1.9; C 2.21; W 1.77; M 2.22; P 3.3; V 2.28; E 3.15; K 2.54; G 2.19; Q 3.56
K14: N 2.94; I 2.3; C 3.08; Q 2.4; P 2.85; V 2.48; H 2.57; W 2.86; S 2.48; A 2.98; D 3.08; T 2.69; G 3.11; E 3.93; F 2.91; R 2.18; L 2.44; Y 2.14; M 2.82
A11: S 2.75; P 3.19; D 3.02; T 2.43; L 3.27; F 2.46; C 2.29; Y 3.24; M 2.02; I 1.68; W 2.49; N 2.44; Q 2.42; G 3.09; E 3.22; K 2.6; R 2.79; V 2.79; H 2.58
M5: S 2.63; P 2.64; K 2.86; F 1.8; E 3.77; I 2.16; A 3.93; H 2.16; T 3.15; V 2.63; Y 1.88; Q 2.95; N 3.1; G 2.9; R 2.78; C 2.73; D 3.65; L 3.18
Q2: V 2.55; K 3.14; Y 2.95; T 2.63; G 3.82; L 2.65; A 2; H 1.81; E 4; W 2.19; C 1.79; R 3.02; I 2.27; F 2.84; M 2.69; N 3.61; S 3.41; D 4.2; P 2.76
M13: V 2.52; E 2.49; R 2.1; F 2.5; S 3.03; A 2.95; Y 2.62; K 1.98; W 2.5; C 2.49; G 3.49; D 3.71; T 2.79; P 3.11; L 2.35; N 3.5; Q 2.62; I 2.85; H 2.65

Variants of: B2
Assay: as above
Conditions: c terminus: a fixed tail appended

Protein stability index, by site and new letter:
Q24: L 2.2; N 3.38; V 3.35; T 2.08; S 2.03; P 2.84; D 3.01; R 3.71; I 1.85; Y 3.94; C 2.5; K 2.45; G 2.92
V22: R 2.44; Y 4.13; Q 2.7; L 2.33; S 2.57; H 2.31; W 4.26; K 4.89; I 1.83; T 2.38
L23: Q 1.9; H 3.01; M 3.52; I 3.31; C 3.13; E 2.65; A 2.28; S 1.66; V 2.5; Y 3.05; K 2.66; R 2.55; P 2.48

— the supplement of paper PMC10567573
